# T1: FcγRIIb extracellular domain with C-terminal His tag (human, UniProt P31994 43-217)
# T1 construct: extracellular domain; also called FcgRIIb; 2b; not shown: His tag at the C terminus
# T1 sequence (looked up): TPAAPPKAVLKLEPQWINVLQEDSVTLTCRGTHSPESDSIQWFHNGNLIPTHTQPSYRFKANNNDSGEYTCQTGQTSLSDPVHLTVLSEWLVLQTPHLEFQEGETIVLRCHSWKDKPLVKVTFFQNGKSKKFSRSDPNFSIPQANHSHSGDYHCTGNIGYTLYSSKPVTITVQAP
# T2: FcγRIIa R (human, UniProt P12318 34-217)
# T2 construct: extracellular domain; also called FcgRIIa R type; 2aR; not shown: His tag at the C terminus
# T2 sequence (looked up): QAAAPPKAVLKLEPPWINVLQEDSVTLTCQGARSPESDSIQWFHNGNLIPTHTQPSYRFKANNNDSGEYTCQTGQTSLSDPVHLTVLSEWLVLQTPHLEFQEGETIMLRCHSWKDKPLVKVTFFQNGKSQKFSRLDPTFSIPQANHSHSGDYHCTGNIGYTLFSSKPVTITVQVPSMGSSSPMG
# T3: FcγRIIb (human, UniProt P31994 43-217)
# T3 construct: extracellular domain; also called FcgRIIb; 2b; not shown: His tag at the C terminus
# T3 sequence (looked up): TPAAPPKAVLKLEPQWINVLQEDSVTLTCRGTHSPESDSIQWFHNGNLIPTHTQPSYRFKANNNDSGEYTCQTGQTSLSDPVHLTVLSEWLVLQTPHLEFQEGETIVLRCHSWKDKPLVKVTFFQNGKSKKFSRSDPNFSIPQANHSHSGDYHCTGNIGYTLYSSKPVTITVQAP
# Columns and labels:
# [1] = target: T4, FcγRIIIa extracellular domain with C-terminal His tag (human, UniProt P08637 17-208); assay: SPR (Biacore); He/Con_3a divided by He/Con_2b (FcγRIIb)
# T4 construct: extracellular domain; also called FcgRIIIa; 3a; not shown: His tag at the C terminus
# [2] = target: T4, FcγRIIIa extracellular domain with …; assay: SPR (Biacore), FcγR as analyte over captured antibody; GpH7-A5/GpH7-B3/GpL16-k0 = 100
# Experimental: (§1) The heterodimerized antibodies He Abs in which one of the H chains was introduced with an alteration were assayed for their binding activities to each activating FcγR and inhibitory FcγR according to the method described in Example 4. […] The activating FcγRs in FIGS. 26, 27, 28, and 29 are FcγRIa, FcγRIIa (R), FcγRIIa (H), and FcγRIIIa, respectively.
# (§2) Analysis of interaction between objective antibody and the FcγR was carried out using Biacore T100 (GE Healthcare). HBS-EP+ (GE Healthcare) was used as the running buffer, and the measurement temperature was set to 25° C. Chips produced by immobilizing the antigen peptide by the amine coupling method to a Series S Sencor Chip CM5 (GE Healthcare), or alternatively, chips produced by allowing preliminarily biotinylated antigen peptides to interact with and immobilize onto a Series S Sensor Chip SA (certified) (GE Healthcare) were used. Antibodies of interest were captured onto an antigen peptide-immobilized chip, and allowed to interact to each FcγR diluted with running buffer. To regenerate and repeatedly use the chip, the antibodies captured on the chip were washed off by reacting 10 mM glycine-HCl, pH 1.5.
# [3] = target: T1, FcγRIIb extracellular domain with …; assay: as above
# Experimental: as §1, §2
# FcγRIIa R [4] = target: T2, FcγRIIa R; assay: SPR, relative to GpH7-A5/GpH7-B3/GpL16-k0
# FcγRIIb = target: T3, FcγRIIb; assay: SPR, relative to GpH7-A5/GpH7-B3/GpL16-k0
# FcγRIIa R [5] = target: T2, FcγRIIa R; assay: SPR; He/Con_2aR divided by He/Con_2b (FcγRIIa R over FcγRIIb)
# T4 sequence (P08637 17-208): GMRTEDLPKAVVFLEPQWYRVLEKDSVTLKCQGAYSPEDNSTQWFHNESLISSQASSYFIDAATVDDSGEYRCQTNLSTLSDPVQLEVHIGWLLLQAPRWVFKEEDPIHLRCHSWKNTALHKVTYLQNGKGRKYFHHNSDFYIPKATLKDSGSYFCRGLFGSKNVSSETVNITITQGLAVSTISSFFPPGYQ
Binder,He_3a/2b (IIIa/IIb) [1],He/Con_3a [2],He/Con_2b [3],He/Con_2aR (FcγRIIa R [4]),He/Con_2b (FcγRIIb),He_2aR/2b (FcγRIIa R [5])
"GpH7-A5/GpH7-B3 variant A327_08L/GpL16-k0 (antibody, human IgG1, kappa, Heterodimerized IgG1 antibody; alteration in the GpH7-B3 chain only; also called He Ab) heavy 1: not shown heavy 2: not shown light: DIVMTQSPLSLPVTPGEPASISCQASESLVHSNRNTYLHWYLQKPGQSPQLLIYKVSNRFSGVPDRFSGSGSGTDFTLKISRVEAEDVGVYYCSQNTHVPPTFGQGTKVEIERTVAAPSVFIFPPSDEQLKSGTASVVCLLNNFYPREAKVQWKVDNALQSGNSQESVTEQDSKDSTYSLSSTLTLSKADYEKHKVYACEVTHQGLSSPVTKSFNRGEC",0.67 ratio,42 % of control,63.1 % of control,–,–,–
"GpH7-A5/GpH7-B3 variant A327_01G/GpL16-k0 (antibody, human IgG1, kappa, Heterodimerized IgG1 antibody; alteration in the GpH7-B3 chain only; also called He Ab) heavy 1: not shown heavy 2: not shown light: DIVMTQSPLSLPVTPGEPASISCQASESLVHSNRNTYLHWYLQKPGQSPQLLIYKVSNRFSGVPDRFSGSGSGTDFTLKISRVEAEDVGVYYCSQNTHVPPTFGQGTKVEIERTVAAPSVFIFPPSDEQLKSGTASVVCLLNNFYPREAKVQWKVDNALQSGNSQESVTEQDSKDSTYSLSSTLTLSKADYEKHKVYACEVTHQGLSSPVTKSFNRGEC",0.63 ratio,72.4 % of control,116 % of control,–,–,–
"GpH7-A5/GpH7-B3 variant A327_09D/GpL16-k0 (antibody, human IgG1, kappa, Heterodimerized IgG1 antibody; alteration in the GpH7-B3 chain only; also called He Ab) heavy 1: not shown heavy 2: not shown light: DIVMTQSPLSLPVTPGEPASISCQASESLVHSNRNTYLHWYLQKPGQSPQLLIYKVSNRFSGVPDRFSGSGSGTDFTLKISRVEAEDVGVYYCSQNTHVPPTFGQGTKVEIERTVAAPSVFIFPPSDEQLKSGTASVVCLLNNFYPREAKVQWKVDNALQSGNSQESVTEQDSKDSTYSLSSTLTLSKADYEKHKVYACEVTHQGLSSPVTKSFNRGEC",0.49 ratio,83.7 % of control,172 % of control,–,–,–
"GpH7-A5/GpH7-B3 variant A327_04F/GpL16-k0 (antibody, human IgG1, kappa, Heterodimerized IgG1 antibody; alteration in the GpH7-B3 chain only; also called He Ab) heavy 1: not shown heavy 2: not shown light: DIVMTQSPLSLPVTPGEPASISCQASESLVHSNRNTYLHWYLQKPGQSPQLLIYKVSNRFSGVPDRFSGSGSGTDFTLKISRVEAEDVGVYYCSQNTHVPPTFGQGTKVEIERTVAAPSVFIFPPSDEQLKSGTASVVCLLNNFYPREAKVQWKVDNALQSGNSQESVTEQDSKDSTYSLSSTLTLSKADYEKHKVYACEVTHQGLSSPVTKSFNRGEC",0.72 ratio,46.2 % of control,63.7 % of control,–,–,–

# Results, then the binder that gave them:
He_3a/2b (IIIa/IIb) [1],He/Con_3a [2],He/Con_2b [3],He/Con_2aR (FcγRIIa R [4]),He/Con_2b (FcγRIIb),He_2aR/2b (FcγRIIa R [5]),Binder
0.54 ratio,61.1 % of control,113 % of control,–,–,–,"GpH7-A5/GpH7-B3 variant A327_18N/GpL16-k0 (antibody, human IgG1, kappa, Heterodimerized IgG1 antibody; alteration in the GpH7-B3 chain only; also called He Ab) heavy 1: not shown heavy 2: not shown light: DIVMTQSPLSLPVTPGEPASISCQASESLVHSNRNTYLHWYLQKPGQSPQLLIYKVSNRFSGVPDRFSGSGSGTDFTLKISRVEAEDVGVYYCSQNTHVPPTFGQGTKVEIERTVAAPSVFIFPPSDEQLKSGTASVVCLLNNFYPREAKVQWKVDNALQSGNSQESVTEQDSKDSTYSLSSTLTLSKADYEKHKVYACEVTHQGLSSPVTKSFNRGEC"
–,–,–,107 control = 100,134 control = 100,0.8 ratio,"GpH7-A5/GpH7-B3 variant Y300_10E/GpL16-k0 (antibody, human IgG1, kappa, Heterodimerized anti-glypican-3 IgG1; mutation in the GpH7-B3 chain only; also called He Ab) heavy 1: not shown heavy 2: not shown light: DIVMTQSPLSLPVTPGEPASISCQASESLVHSNRNTYLHWYLQKPGQSPQLLIYKVSNRFSGVPDRFSGSGSGTDFTLKISRVEAEDVGVYYCSQNTHVPPTFGQGTKVEIERTVAAPSVFIFPPSDEQLKSGTASVVCLLNNFYPREAKVQWKVDNALQSGNSQESVTEQDSKDSTYSLSSTLTLSKADYEKHKVYACEVTHQGLSSPVTKSFNRGEC"
0.46 ratio,41.4 % of control,89.4 % of control,–,–,–,"GpH7-A5/GpH7-B3 variant A327_14T/GpL16-k0 (antibody, human IgG1, kappa, Heterodimerized IgG1 antibody; alteration in the GpH7-B3 chain only; also called He Ab) heavy 1: not shown heavy 2: not shown light: DIVMTQSPLSLPVTPGEPASISCQASESLVHSNRNTYLHWYLQKPGQSPQLLIYKVSNRFSGVPDRFSGSGSGTDFTLKISRVEAEDVGVYYCSQNTHVPPTFGQGTKVEIERTVAAPSVFIFPPSDEQLKSGTASVVCLLNNFYPREAKVQWKVDNALQSGNSQESVTEQDSKDSTYSLSSTLTLSKADYEKHKVYACEVTHQGLSSPVTKSFNRGEC"
0.69 ratio,43.7 % of control,63.5 % of control,–,–,–,"GpH7-A5/GpH7-B3 variant A327_16H/GpL16-k0 (antibody, human IgG1, kappa, Heterodimerized IgG1 antibody; alteration in the GpH7-B3 chain only; also called He Ab) heavy 1: not shown heavy 2: not shown light: DIVMTQSPLSLPVTPGEPASISCQASESLVHSNRNTYLHWYLQKPGQSPQLLIYKVSNRFSGVPDRFSGSGSGTDFTLKISRVEAEDVGVYYCSQNTHVPPTFGQGTKVEIERTVAAPSVFIFPPSDEQLKSGTASVVCLLNNFYPREAKVQWKVDNALQSGNSQESVTEQDSKDSTYSLSSTLTLSKADYEKHKVYACEVTHQGLSSPVTKSFNRGEC"
